Target: GLP-1 receptor of RIN-m5F rat insulinoma cells (rat) (UniProt P32301)

| Substance | In-vitro titer (%) (EC50 of cAMP in RIN-m5F cells, compared) |
| --- | --- |
| Exendin-4(Lys27)-PEG-Fc | 6.3 |
| Exendin-4(N)-PEG-Fc | < 0.2 |

Reference: US20150056223A1, “PHARMACEUTICAL COMPOSITION FOR THE PREVENTION OR TREATMENT OF NON-ALCOHOLIC FATTY LIVER DISEASE” (HANMI SCIENCE CO., LTD, priority 2012, published 2015)
